In this assay the target is T1, full-length human EPHA2 expressed on 293T cells (pcDNA-DEST40-EPHA2) (human, UniProt P29317 24-976).
T1 construct: The stop codon was removed before transfer into pcDNA-DEST40; also called EPHA2-expressing 293T cells
Nature of the assay: flow cytometry, hybridoma supernatant on EPHA2-transfected 293T cells. As for the experimental part: 293T cells were seeded at a density of 5×10⁴ cells/cm² on a collagen type I-coated flask (IWAKI), and were then cultured in DMEM supplemented with 10% FBS at 37° C. in 5% CO₂ under a humidified atmosphere overnight. On the following day, the 293T cells were transfected with each of pcDNA-DEST40-EPHA2 and pcDNA-DEST40-ERBB2 (negative control), using Lipofectamine 2000 (Invitrogen, Thermo Fisher Scientific), and thereafter, the resulting cells were further cultured at 37° C. in 5% CO₂ under a humidified atmosphere overnight. On the following day, the transfected cells were treated with trypsin, and were then washed with DMEM supplemented with 10% FBS. The resulting cells were suspended in 5% FBS-containing PBS. These cells were used in Cell-ELISA and flow cytometric analysis.
In order to eliminate false-positive results in the Cell-ELISA, the specific binding ability of antibodies generated by the hybridomas that had been determined to be positive in the Cell-ELISA was confirmed by flow cytometry. The cells prepared in the above 1)-6-1 were mixed with a culture supernatant of the hybridomas, and the obtained mixture was then incubated at 4° C. for 1 hour. […]
For orientation: A flow cytometer gives signals particle by particle.

The record followed here is US20190359722A1 (TOYO UNIVERSITY, published 2019).

T1 sequence (P29317 24-976 limits assumed): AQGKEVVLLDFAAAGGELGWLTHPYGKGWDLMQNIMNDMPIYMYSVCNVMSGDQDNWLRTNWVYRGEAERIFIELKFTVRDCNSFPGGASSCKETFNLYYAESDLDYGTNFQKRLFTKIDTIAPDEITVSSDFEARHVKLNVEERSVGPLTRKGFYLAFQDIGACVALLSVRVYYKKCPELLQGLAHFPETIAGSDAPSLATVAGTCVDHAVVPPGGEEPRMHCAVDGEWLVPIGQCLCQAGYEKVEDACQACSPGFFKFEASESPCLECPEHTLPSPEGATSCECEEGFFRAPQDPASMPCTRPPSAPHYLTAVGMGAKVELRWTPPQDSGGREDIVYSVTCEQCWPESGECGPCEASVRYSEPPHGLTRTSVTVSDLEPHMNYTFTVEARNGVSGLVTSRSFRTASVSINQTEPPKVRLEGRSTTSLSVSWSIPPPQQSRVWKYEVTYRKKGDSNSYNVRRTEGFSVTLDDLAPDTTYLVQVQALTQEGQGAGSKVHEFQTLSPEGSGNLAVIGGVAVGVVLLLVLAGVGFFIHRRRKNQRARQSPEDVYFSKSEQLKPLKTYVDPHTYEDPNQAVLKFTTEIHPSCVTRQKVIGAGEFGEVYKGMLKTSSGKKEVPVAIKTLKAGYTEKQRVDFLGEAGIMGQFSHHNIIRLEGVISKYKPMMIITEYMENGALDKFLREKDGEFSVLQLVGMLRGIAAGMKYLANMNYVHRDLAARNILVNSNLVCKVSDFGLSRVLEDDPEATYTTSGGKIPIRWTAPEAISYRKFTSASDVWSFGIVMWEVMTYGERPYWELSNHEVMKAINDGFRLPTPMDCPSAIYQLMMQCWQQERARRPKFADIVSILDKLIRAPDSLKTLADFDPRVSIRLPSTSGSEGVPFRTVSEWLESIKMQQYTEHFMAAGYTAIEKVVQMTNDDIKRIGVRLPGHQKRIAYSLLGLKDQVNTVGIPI

B1: mouse anti-EPHA2 monoclonal antibody 230-1 (antibody, V domains shown)
VH: EVQLVESGGGLVKPGGSLKLSCEASGFTFSDYYMYWVRQTPEKRLEWVATISDDGSFTHYLDSVKGRFTISRDNAQNNLYLQMSSLKSDDTAMYYCARDGYRYDRPFAYWGQGTLVTVSA
VL: DIVMTQSHKFMSTSVGDRVRITCKASQDVNTAVAWYQQKPGQSPKLLIYWASTRHTGVPDRFTGSGSGTDYSLTISSVQAEDLALYYCQQHYSTPYTFGGGTKLEIKR
notes: The variable regions were found by 5'-RACE; Used unlabeled as capture antibody and biotin-labeled as detection antibody; also called biotin-labeled antibody 230-1
Take B1: the binding result is recorded as “binds”.

B2: mouse anti-EPHA2 monoclonal antibody 57-1 (antibody, V domains shown)
VH: QIQLVQSGPELKKPGETVKISCKGSGYTFTNYGMNWVKQAPGKGLKWMAWINTDTGEPIFVEEFKGRFAFSLETSASTAYLQINNLTNEDTATYFCARSMGGFANWGQGTLVTVSA
VL: DIVMTQSPATLSVTPGDRVSLSCRASQNISDYLHWYQQKSHESPRLLIKYASQSISGIPSRFSGSGSGSDFTLTINSVEPEDVAMYYCQNGHTFPTFGAGTKLELKR
notes: The variable regions were found by 5'-RACE; Used unlabeled as capture antibody and biotin-labeled as detection antibody; also called biotin-labeled antibody 57-1
Consider B2, for which the binding result is listed as “binds”.
